Test results reported in publication PMC6363177, “R pyocin tail fiber structure reveals a receptor-binding domain with a lectin fold” (PLoS ONE, 2019).

B1: R2-subtype N-terminally truncated tail fiber fragment (R2-NTF) (domain or fragment)
chain: YVRVSYAANPSIREWLPWQRCDIGGSFTKEADGELPGGVNLDSMVTSGWWSQSFTAQAASGANYPIVRAGLLHVYAASSNFIYQTYQAYDGESFYFRCRHSNTWFPWRRMWHGGDFNPSDYLLKSGFYWNALPGKPATFPPSAHNHDVGQLTSGILPLARGGVGSNTAAGARSTIGAGVPATASLGASGWWRDNDTGLIRQWGQVTCPADADASITFPIPFPTLCLGGYANQTSAFHPGTDASTGFRGATTTTAVIRNGYFAQAVLSWEAFGR
notes: R2-subtype pyocin tail fiber PA0620 of Pseudomonas aeruginosa PAO1, residues Y419-R691; numbering relative to native PA0620; Cloned into pMCSG11 (LIC); 32.2 kDa printed; Removal of the tag before crystallisation is not mentioned; also called R2-subtype pyocin tail fiber distal region; PA0620 Y419-R691; source: E. coli BL21 (DE3), co-expressed with chaperone PA0621; in lysate for the Ni-IMAC …
B2: Selenomethionine-labelled R2-NTF (domain or fragment)
chain: YVRVSYAANPSIREWLPWQRCDIGGSFTKEADGELPGGVNLDSMVTSGWWSQSFTAQAASGANYPIVRAGLLHVYAASSNFIYQTYQAYDGESFYFRCRHSNTWFPWRRMWHGGDFNPSDYLLKSGFYWNALPGKPATFPPSAHNHDVGQLTSGILPLARGGVGSNTAAGARSTIGAGVPATASLGASGWWRDNDTGLIRQWGQVTCPADADASITFPIPFPTLCLGGYANQTSAFHPGTDASTGFRGATTTTAVIRNGYFAQAVLSWEAFGR
modifications: selenomethionine in place of methionine
notes: R2-subtype pyocin tail fiber PA0620 of Pseudomonas aeruginosa PAO1, residues Y419-R691 (plasmid pMCSG11/R2-NTF, as m1); numbering relative to native PA0620; Same construct as m1, made in another host and labelled with selenomethionine for Se-SAD phasing; also called Sel-met R2-NTF; selenomethionine replaced R2-NTF; source: E. coli B834 (DE3) methionine auxotroph, co-expressed with PA0621 in M9 …

Assays:
[1] = target: the molecule itself; test: SEC; analytical Sepharose-200 10/300 column, elution volumes compared with SEC standards (Biorad); samples diluted to 1 mg/mL in 50mM Tris pH 8.0, 150mM NaCl, 5% glycerol
[2] = target: the molecule itself; test: crystal structure; vapor diffusion crystals at 16°C; trimer formed by crystallographic symmetry, also checked with PISA

| Protein | stoichiometry N [1] | stoichiometry N [2] |
| --- | --- | --- |
| B1 | 3 |  |
| B2 |  | 3 |
